Assay results as given in patent publication US11833164B2, “Methods of treating Fabry disease in patients having a mutation in the GLA gene” (Amicus Therapeutics, Inc., priority 2019, dated 2023).

System: mutant form of α-Gal A expressed in HEK-293 cells
Assay: HEK assay (GLP HEK / Migalastat Amenability Assay): α-Gal A activity in lysates of transiently transfected HEK-293 cells incubated with or without 10 μM migalastat
Type: cell-based, human
Conditions: for Absolute increase (% WT): 10 μM migalastat versus baseline; for 10 μM migalastat α-Gal A activity (% WT): 5 days; for 10 μM migalastat α-Gal A activity (% WT) / Baseline α-Gal A activity (% WT): percentage of baseline wild-type α-Gal A activity; for 10 μM migalastat α-Gal A activity (% WT) / 10 μM migalastat α-Gal A activity / Baseline α-Gal A activity (% WT) / Baseline α-Gal A activity: mean ± SEM; for 10 μM migalastat α-Gal A activity / Baseline α-Gal A activity: lysates of HEK-293 cells transfected with the mutant form; for 10 μM migalastat α-Gal A activity: incubated 5 days with 10 μM migalastat; for Relative increase: 10 μM migalastat α-Gal A activity relative to baseline; for Baseline α-Gal A activity: incubated 5 days in the absence of migalastat
Protocol: Such mutations or variants are also referred to herein as “HEK assay amenable” mutations or variants.
The α-Gal A activity is expressed as the nmoles of free 4-MU released per milligram of protein per hour (nmol/mg/hr).
In Table 7, values for the mean±standard error of the mean (SEM) were calculated. nmol/mg/hr indicates “nmoles of free 4-MU released per mg of protein per hour”. WT indicates “wild-type”. NC indicates “not calculable”. N/A indicates “not applicable”.

B1: F113Y (protein)
chain: MQLRNPELHLGCALALRFLALVSWDIPGARALDNGLARTPTMGWLHWERFMCNLDCQEEPDSCISEKLFMEMAELMVSEGWKDAGYEYLCIDDCWMAPQRDSEGRLQADPQRYPHGIRQLANYVHSKGLKLGIYADVGNKTCAGFPGSFGYYDIDAQTFADWGVDLLKFDGCYCDSLENLADGYKHMSLALNRTGRSIVYSCEWPLYMWPFQKPNYTEIRQYCNHWRNFADIDDSWKSIKSILDWTSFNQERIVDVAGPGGWNDPDMLVIGNFGLSWNQQVTQMALWAIMAAPLFMSNDLRHISPQAKALLQDKDVIAINQDPLGKQGYQLRQGDNFEVWERPLSGLAWAVAMINRQEIGGPRSYTIAVASLGKGVACNPACFITQLLPVKRKLGFYEWTSRLRSHINPTGTVLLQLENTMQMSLKDLL
Absolute increase (% WT): 4.4 % WT | 10 μM migalastat α-Gal A activity (% WT): 4.4 ± 0.3 % WT | Baseline α-Gal A activity (nmol/mg/hr) (absence of migalastat, mean activity below the limit of detection (<142 nmol/mg/hr)): BLD (“BLD” indicates that the mean α-Gal A activity was below the limit of detection (<142 nmol/mg/hr)) | 10 μM migalastat α-Gal A activity: 1328 ± 79 nmol/mg/h

B2: Y123D (protein)
chain: MQLRNPELHLGCALALRFLALVSWDIPGARALDNGLARTPTMGWLHWERFMCNLDCQEEPDSCISEKLFMEMAELMVSEGWKDAGYEYLCIDDCWMAPQRDSEGRLQADPQRFPHGIRQLANDVHSKGLKLGIYADVGNKTCAGFPGSFGYYDIDAQTFADWGVDLLKFDGCYCDSLENLADGYKHMSLALNRTGRSIVYSCEWPLYMWPFQKPNYTEIRQYCNHWRNFADIDDSWKSIKSILDWTSFNQERIVDVAGPGGWNDPDMLVIGNFGLSWNQQVTQMALWAIMAAPLFMSNDLRHISPQAKALLQDKDVIAINQDPLGKQGYQLRQGDNFEVWERPLSGLAWAVAMINRQEIGGPRSYTIAVASLGKGVACNPACFITQLLPVKRKLGFYEWTSRLRSHINPTGTVLLQLENTMQMSLKDLL
Absolute increase (% WT): 10.2 % WT | Relative increase: 1.2 | 10 μM migalastat α-Gal A activity (% WT): 53.6 ± 2.7 % WT | Baseline α-Gal A activity (% WT) (absence of migalastat): 43.4 ± 1.6 % WT | Baseline α-Gal A activity: 15093 ± 815 nmol/mg/h | 10 μM migalastat α-Gal A activity: 18723 ± 1237 nmol/mg/h

B3: H115N (protein)
chain: MQLRNPELHLGCALALRFLALVSWDIPGARALDNGLARTPTMGWLHWERFMCNLDCQEEPDSCISEKLFMEMAELMVSEGWKDAGYEYLCIDDCWMAPQRDSEGRLQADPQRFPNGIRQLANYVHSKGLKLGIYADVGNKTCAGFPGSFGYYDIDAQTFADWGVDLLKFDGCYCDSLENLADGYKHMSLALNRTGRSIVYSCEWPLYMWPFQKPNYTEIRQYCNHWRNFADIDDSWKSIKSILDWTSFNQERIVDVAGPGGWNDPDMLVIGNFGLSWNQQVTQMALWAIMAAPLFMSNDLRHISPQAKALLQDKDVIAINQDPLGKQGYQLRQGDNFEVWERPLSGLAWAVAMINRQEIGGPRSYTIAVASLGKGVACNPACFITQLLPVKRKLGFYEWTSRLRSHINPTGTVLLQLENTMQMSLKDLL
Absolute increase (% WT): 30.1 % WT | Relative increase: 1.7 | 10 μM migalastat α-Gal A activity (% WT): 75 ± 2.5 % WT | Baseline α-Gal A activity (% WT) (absence of migalastat): 44.9 ± 2.5 % WT | Baseline α-Gal A activity: 13745 ± 890 nmol/mg/h | 10 μM migalastat α-Gal A activity: 23018 ± 1098 nmol/mg/h

B4: A121V (protein)
chain: MQLRNPELHLGCALALRFLALVSWDIPGARALDNGLARTPTMGWLHWERFMCNLDCQEEPDSCISEKLFMEMAELMVSEGWKDAGYEYLCIDDCWMAPQRDSEGRLQADPQRFPHGIRQLVNYVHSKGLKLGIYADVGNKTCAGFPGSFGYYDIDAQTFADWGVDLLKFDGCYCDSLENLADGYKHMSLALNRTGRSIVYSCEWPLYMWPFQKPNYTEIRQYCNHWRNFADIDDSWKSIKSILDWTSFNQERIVDVAGPGGWNDPDMLVIGNFGLSWNQQVTQMALWAIMAAPLFMSNDLRHISPQAKALLQDKDVIAINQDPLGKQGYQLRQGDNFEVWERPLSGLAWAVAMINRQEIGGPRSYTIAVASLGKGVACNPACFITQLLPVKRKLGFYEWTSRLRSHINPTGTVLLQLENTMQMSLKDLL
Absolute increase (% WT): 56.7 % WT | Relative increase: 3.7 | 10 μM migalastat α-Gal A activity (% WT): 78.2 ± 4.2 % WT | Baseline α-Gal A activity (% WT) (absence of migalastat): 21.5 ± 1.2 % WT | Baseline α-Gal A activity: 7301 ± 253 nmol/mg/h | 10 μM migalastat α-Gal A activity: 26639 ± 1124 nmol/mg/h

B5: G116R (protein)
chain: MQLRNPELHLGCALALRFLALVSWDIPGARALDNGLARTPTMGWLHWERFMCNLDCQEEPDSCISEKLFMEMAELMVSEGWKDAGYEYLCIDDCWMAPQRDSEGRLQADPQRFPHRIRQLANYVHSKGLKLGIYADVGNKTCAGFPGSFGYYDIDAQTFADWGVDLLKFDGCYCDSLENLADGYKHMSLALNRTGRSIVYSCEWPLYMWPFQKPNYTEIRQYCNHWRNFADIDDSWKSIKSILDWTSFNQERIVDVAGPGGWNDPDMLVIGNFGLSWNQQVTQMALWAIMAAPLFMSNDLRHISPQAKALLQDKDVIAINQDPLGKQGYQLRQGDNFEVWERPLSGLAWAVAMINRQEIGGPRSYTIAVASLGKGVACNPACFITQLLPVKRKLGFYEWTSRLRSHINPTGTVLLQLENTMQMSLKDLL
Absolute increase (% WT): 9.9 % WT | Relative increase: 2.7 | 10 μM migalastat α-Gal A activity (% WT): 15.4 ± 1.5 % WT | Baseline α-Gal A activity (% WT) (absence of migalastat): 5.4 ± 0.3 % WT | Baseline α-Gal A activity: 1922 ± 143 nmol/mg/h | 10 μM migalastat α-Gal A activity: 5251 ± 464 nmol/mg/h

B6: H115D (protein)
chain: MQLRNPELHLGCALALRFLALVSWDIPGARALDNGLARTPTMGWLHWERFMCNLDCQEEPDSCISEKLFMEMAELMVSEGWKDAGYEYLCIDDCWMAPQRDSEGRLQADPQRFPDGIRQLANYVHSKGLKLGIYADVGNKTCAGFPGSFGYYDIDAQTFADWGVDLLKFDGCYCDSLENLADGYKHMSLALNRTGRSIVYSCEWPLYMWPFQKPNYTEIRQYCNHWRNFADIDDSWKSIKSILDWTSFNQERIVDVAGPGGWNDPDMLVIGNFGLSWNQQVTQMALWAIMAAPLFMSNDLRHISPQAKALLQDKDVIAINQDPLGKQGYQLRQGDNFEVWERPLSGLAWAVAMINRQEIGGPRSYTIAVASLGKGVACNPACFITQLLPVKRKLGFYEWTSRLRSHINPTGTVLLQLENTMQMSLKDLL
Absolute increase (% WT): 14.1 % WT | Relative increase: 1.5 | 10 μM migalastat α-Gal A activity (% WT): 44.8 ± 3 % WT | Baseline α-Gal A activity (% WT) (absence of migalastat): 30.7 ± 2.9 % WT | Baseline α-Gal A activity: 10284 ± 1141 nmol/mg/h | 10 μM migalastat α-Gal A activity: 15258 ± 1412 nmol/mg/h

B7: I117T (protein)
chain: MQLRNPELHLGCALALRFLALVSWDIPGARALDNGLARTPTMGWLHWERFMCNLDCQEEPDSCISEKLFMEMAELMVSEGWKDAGYEYLCIDDCWMAPQRDSEGRLQADPQRFPHGTRQLANYVHSKGLKLGIYADVGNKTCAGFPGSFGYYDIDAQTFADWGVDLLKFDGCYCDSLENLADGYKHMSLALNRTGRSIVYSCEWPLYMWPFQKPNYTEIRQYCNHWRNFADIDDSWKSIKSILDWTSFNQERIVDVAGPGGWNDPDMLVIGNFGLSWNQQVTQMALWAIMAAPLFMSNDLRHISPQAKALLQDKDVIAINQDPLGKQGYQLRQGDNFEVWERPLSGLAWAVAMINRQEIGGPRSYTIAVASLGKGVACNPACFITQLLPVKRKLGFYEWTSRLRSHINPTGTVLLQLENTMQMSLKDLL
Absolute increase (% WT): 4.7 % WT | Relative increase: 2.1 | 10 μM migalastat α-Gal A activity (% WT): 9 ± 0.9 % WT | Baseline α-Gal A activity (% WT) (absence of migalastat): 4.3 ± 0.2 % WT | Baseline α-Gal A activity: 1607 ± 54 nmol/mg/h | 10 μM migalastat α-Gal A activity: 3303 ± 308 nmol/mg/h

B8: I117M (protein)
chain: MQLRNPELHLGCALALRFLALVSWDIPGARALDNGLARTPTMGWLHWERFMCNLDCQEEPDSCISEKLFMEMAELMVSEGWKDAGYEYLCIDDCWMAPQRDSEGRLQADPQRFPHGMRQLANYVHSKGLKLGIYADVGNKTCAGFPGSFGYYDIDAQTFADWGVDLLKFDGCYCDSLENLADGYKHMSLALNRTGRSIVYSCEWPLYMWPFQKPNYTEIRQYCNHWRNFADIDDSWKSIKSILDWTSFNQERIVDVAGPGGWNDPDMLVIGNFGLSWNQQVTQMALWAIMAAPLFMSNDLRHISPQAKALLQDKDVIAINQDPLGKQGYQLRQGDNFEVWERPLSGLAWAVAMINRQEIGGPRSYTIAVASLGKGVACNPACFITQLLPVKRKLGFYEWTSRLRSHINPTGTVLLQLENTMQMSLKDLL
Absolute increase (% WT): 29.4 % WT | Relative increase: 1.6 | 10 μM migalastat α-Gal A activity (% WT): 83.5 ± 3.6 % WT | Baseline α-Gal A activity (% WT) (absence of migalastat): 54.2 ± 3.9 % WT | Baseline α-Gal A activity: 20226 ± 1373 nmol/mg/h | 10 μM migalastat α-Gal A activity: 31280 ± 1153 nmol/mg/h

B9: P114L (protein)
chain: MQLRNPELHLGCALALRFLALVSWDIPGARALDNGLARTPTMGWLHWERFMCNLDCQEEPDSCISEKLFMEMAELMVSEGWKDAGYEYLCIDDCWMAPQRDSEGRLQADPQRFLHGIRQLANYVHSKGLKLGIYADVGNKTCAGFPGSFGYYDIDAQTFADWGVDLLKFDGCYCDSLENLADGYKHMSLALNRTGRSIVYSCEWPLYMWPFQKPNYTEIRQYCNHWRNFADIDDSWKSIKSILDWTSFNQERIVDVAGPGGWNDPDMLVIGNFGLSWNQQVTQMALWAIMAAPLFMSNDLRHISPQAKALLQDKDVIAINQDPLGKQGYQLRQGDNFEVWERPLSGLAWAVAMINRQEIGGPRSYTIAVASLGKGVACNPACFITQLLPVKRKLGFYEWTSRLRSHINPTGTVLLQLENTMQMSLKDLL
Absolute increase (% WT): 5.4 % WT | Relative increase: 1.3 | 10 μM migalastat α-Gal A activity (% WT): 23.7 ± 1.3 % WT | Baseline α-Gal A activity (% WT) (absence of migalastat): 18.3 ± 2.1 % WT | Baseline α-Gal A activity: 6229 ± 901 nmol/mg/h | 10 μM migalastat α-Gal A activity: 7973 ± 626 nmol/mg/h
